# B1: mRNA-splicing (parent)
# chain: AGUUGCUGCUGGGAGCUCCAGCACAGUGAAAUGGACAGAAGGGCAGAGCAA
# Variants of: B1
# Assay: exon inclusion enrichment index; higher = more inclusion; WT1 exon 5 minigene, HEK293
row,Variant,exon inclusion enrichment index
1,G5C C6U G8C C9U U10C A39U A40U,0.67
2,G5C C6U G8C C9U U10C A40C,2.94
3,G5C C6U G8C C9U U10C A40C G41A,0.768
4,G5C C6U G8C C9U U10C A40C G41C,2.97
5,G5C C6U G8C C9U U10C A40C G41U,0.895
6,G5C C6U G8C C9U U10C A40G,1.61
7,G5C C6U G8C C9U U10C A40G G41A,0.782
8,G5C C6U G8C C9U U10C A40G G41C,3.24
9,G5C C6U G8C C9U U10C A40G G41U,1.75
10,G5C C6U G8C C9U U10C A40U,1.67
11,G5C C6U G8C C9U U10C A40U G41A,0.0602
12,G5C C6U G8C C9U U10C A40U G41C,2.71
13,G5C C6U G8C C9U U10C A40U G41U,0.94
14,G5C C6U G8C C9U U10C A45C,2.06
15,G5C C6U G8C C9U U10C A45C G46A,1.12
16,G5C C6U G8C C9U U10C A45C G46C,1.22
17,G5C C6U G8C C9U U10C A45C G46U,0.726
18,G5C C6U G8C C9U U10C A45G,3.56
19,G5C C6U G8C C9U U10C A45G G46A,3.98
20,G5C C6U G8C C9U U10C A45G G46C,2.3
21,G5C C6U G8C C9U U10C A45G G46U,1.68
22,G5C C6U G8C C9U U10C A45U,2.45
23,G5C C6U G8C C9U U10C A45U G46A,1.39
24,G5C C6U G8C C9U U10C A45U G46C,1.3

row,Variant,exon inclusion enrichment index
1,G5C C6U G8C C9U U10C A45U G46U,0.648
2,G5C C6U G8C C9U U10C A47C,2.38
3,G5C C6U G8C C9U U10C A47C G48A,1.12
4,G5C C6U G8C C9U U10C A47C G48C,1.78
5,G5C C6U G8C C9U U10C A47C G48U,1.77
6,G5C C6U G8C C9U U10C A47G,0.327
7,G5C C6U G8C C9U U10C A47G G48A,1.24
8,G5C C6U G8C C9U U10C A47G G48C,0.706
9,G5C C6U G8C C9U U10C A47G G48U,0.205
10,G5C C6U G8C C9U U10C A47U,1.87
11,G5C C6U G8C C9U U10C A47U G48A,1.58
12,G5C C6U G8C C9U U10C A47U G48C,1.37
13,G5C C6U G8C C9U U10C A47U G48U,1.45
14,G5C C6U G8C C9U U10C C16A,2.53
15,G5C C6U G8C C9U U10C C16A U17A,1.38
16,G5C C6U G8C C9U U10C C16A U17C,1.6
17,G5C C6U G8C C9U U10C C16A U17G,1.15
18,G5C C6U G8C C9U U10C C16G,1.02
19,G5C C6U G8C C9U U10C C16G U17A,2.4
20,G5C C6U G8C C9U U10C C16G U17C,1.12
21,G5C C6U G8C C9U U10C C16G U17G,0.254
22,G5C C6U G8C C9U U10C C16U,2.36
23,G5C C6U G8C C9U U10C C16U U17A,1.65
24,G5C C6U G8C C9U U10C C16U U17C,1.08

row,Variant,exon inclusion enrichment index
1,G5C C6U G8C C9U U10C C16U U17G,0.905
2,G5C C6U G8C C9U U10C C18A,1.39
3,G5C C6U G8C C9U U10C C18A C19A,0.438
4,G5C C6U G8C C9U U10C C18A C19G,0.289
5,G5C C6U G8C C9U U10C C18A C19U,0.0905
6,G5C C6U G8C C9U U10C C18G,2.21
7,G5C C6U G8C C9U U10C C18G C19A,2.82
8,G5C C6U G8C C9U U10C C18G C19G,2.78
9,G5C C6U G8C C9U U10C C18G C19U,0.674
10,G5C C6U G8C C9U U10C C18U,1.62
11,G5C C6U G8C C9U U10C C18U C19A,0.179
12,G5C C6U G8C C9U U10C C18U C19G,0.675
13,G5C C6U G8C C9U U10C C18U C19U,0.0402
14,G5C C6U G8C C9U U10C C19A,0.881
15,G5C C6U G8C C9U U10C C19A A20C,0.813
16,G5C C6U G8C C9U U10C C19A A20G,0.213
17,G5C C6U G8C C9U U10C C19A A20U,0.553
18,G5C C6U G8C C9U U10C C19G,1.61
19,G5C C6U G8C C9U U10C C19G A20C,1.8
20,G5C C6U G8C C9U U10C C19G A20G,1.04
21,G5C C6U G8C C9U U10C C19G A20U,1.72
22,G5C C6U G8C C9U U10C C19U,0.105
23,G5C C6U G8C C9U U10C C19U A20C,0.957
24,G5C C6U G8C C9U U10C C19U A20G,0.343

row,Variant,exon inclusion enrichment index
1,G5C C6U G8C C9U U10C C19U A20U,0.25
2,G5C C6U G8C C9U U10C C22A,1.57
3,G5C C6U G8C C9U U10C C22A A23C,2.99
4,G5C C6U G8C C9U U10C C22A A23G,2.07
5,G5C C6U G8C C9U U10C C22A A23U,1.31
6,G5C C6U G8C C9U U10C C22G,2.51
7,G5C C6U G8C C9U U10C C22G A23C,0.747
8,G5C C6U G8C C9U U10C C22G A23G,0.846
9,G5C C6U G8C C9U U10C C22G A23U,0.248
10,G5C C6U G8C C9U U10C C22U,1.44
11,G5C C6U G8C C9U U10C C22U A23C,1.22
12,G5C C6U G8C C9U U10C C22U A23G,2.04
13,G5C C6U G8C C9U U10C C22U A23U,1.09
14,G5C C6U G8C C9U U10C C24A,1.72
15,G5C C6U G8C C9U U10C C24A A25C,3.4
16,G5C C6U G8C C9U U10C C24A A25G,2.06
17,G5C C6U G8C C9U U10C C24A A25U,1.94
18,G5C C6U G8C C9U U10C C24G,2.4
19,G5C C6U G8C C9U U10C C24G A25C,3.27
20,G5C C6U G8C C9U U10C C24G A25G,0.981
21,G5C C6U G8C C9U U10C C24G A25U,2.32
22,G5C C6U G8C C9U U10C C24U,0.544
23,G5C C6U G8C C9U U10C C24U A25C,3.44
24,G5C C6U G8C C9U U10C C24U A25G,3.05

row,Variant,exon inclusion enrichment index
1,G5C C6U G8C C9U U10C C24U A25U,1.95
2,G5C C6U G8C C9U U10C C36A,1.44
3,G5C C6U G8C C9U U10C C36A A37C,2.33
4,G5C C6U G8C C9U U10C C36A A37G,0.805
5,G5C C6U G8C C9U U10C C36A A37U,0.939
6,G5C C6U G8C C9U U10C C36G,1.32
7,G5C C6U G8C C9U U10C C36G A37C,0.671
8,G5C C6U G8C C9U U10C C36G A37G,0.3
9,G5C C6U G8C C9U U10C C36G A37U,0.948
10,G5C C6U G8C C9U U10C C36U,0.515
11,G5C C6U G8C C9U U10C C36U A37C,1.55
12,G5C C6U G8C C9U U10C C36U A37G,1.74
13,G5C C6U G8C C9U U10C C36U A37U,1.12
14,G5C C6U G8C C9U U10C C44A,3.29
15,G5C C6U G8C C9U U10C C44A A45C,3.61
16,G5C C6U G8C C9U U10C C44A A45G,2.98
17,G5C C6U G8C C9U U10C C44A A45U,4.04
18,G5C C6U G8C C9U U10C C44G,2.79
19,G5C C6U G8C C9U U10C C44G A45C,3.14
20,G5C C6U G8C C9U U10C C44G A45G,0.398
21,G5C C6U G8C C9U U10C C44G A45U,1.26
22,G5C C6U G8C C9U U10C C44U,0.527
23,G5C C6U G8C C9U U10C C44U A45C,2.63
24,G5C C6U G8C C9U U10C C44U A45G,1.03

row,Variant,exon inclusion enrichment index
1,G5C C6U G8C C9U U10C C44U A45U,1.28
2,G5C C6U G8C C9U U10C G11A,0.742
3,G5C C6U G8C C9U U10C G11A G12A,0.685
4,G5C C6U G8C C9U U10C G11A G12C,0.41
5,G5C C6U G8C C9U U10C G11A G12U,0.314
6,G5C C6U G8C C9U U10C G11C,2.41
7,G5C C6U G8C C9U U10C G11C G12A,0.634
8,G5C C6U G8C C9U U10C G11C G12C,0.631
9,G5C C6U G8C C9U U10C G11C G12U,0.675
10,G5C C6U G8C C9U U10C G11U,1
11,G5C C6U G8C C9U U10C G11U G12A,0.0218
12,G5C C6U G8C C9U U10C G11U G12C,0.558
13,G5C C6U G8C C9U U10C G11U G12U,0.188
14,G5C C6U G8C C9U U10C G12A,0.889
15,G5C C6U G8C C9U U10C G12A G13A,0.681
16,G5C C6U G8C C9U U10C G12A G13C,0.692
17,G5C C6U G8C C9U U10C G12A G13U,0.128
18,G5C C6U G8C C9U U10C G12C,1.51
19,G5C C6U G8C C9U U10C G12C G13A,0.931
20,G5C C6U G8C C9U U10C G12C G13C,0.312
21,G5C C6U G8C C9U U10C G12C G13U,0.036
22,G5C C6U G8C C9U U10C G12U,1.11
23,G5C C6U G8C C9U U10C G12U G13A,0.153
24,G5C C6U G8C C9U U10C G12U G13C,0.698

row,Variant,exon inclusion enrichment index
1,G5C C6U G8C C9U U10C G12U G13U,0.0261
2,G5C C6U G8C C9U U10C G13A,2.18
3,G5C C6U G8C C9U U10C G13A A14C,2.59
4,G5C C6U G8C C9U U10C G13A A14G,2.03
5,G5C C6U G8C C9U U10C G13A A14U,2.38
6,G5C C6U G8C C9U U10C G13C,0.822
7,G5C C6U G8C C9U U10C G13C A14C,1.15
8,G5C C6U G8C C9U U10C G13C A14G,1.94
9,G5C C6U G8C C9U U10C G13C A14U,1.35
10,G5C C6U G8C C9U U10C G13U,0.0883
11,G5C C6U G8C C9U U10C G13U A14C,0.936
12,G5C C6U G8C C9U U10C G13U A14G,0.52
13,G5C C6U G8C C9U U10C G13U A14U,0.592
14,G5C C6U G8C C9U U10C G15A,0.641
15,G5C C6U G8C C9U U10C G15A C16A,1.24
16,G5C C6U G8C C9U U10C G15A C16G,1.28
17,G5C C6U G8C C9U U10C G15A C16U,1.27
18,G5C C6U G8C C9U U10C G15C,2.54
19,G5C C6U G8C C9U U10C G15C C16A,1.75
20,G5C C6U G8C C9U U10C G15C C16G,2.09
21,G5C C6U G8C C9U U10C G15C C16U,1.9
22,G5C C6U G8C C9U U10C G15U,2.23
23,G5C C6U G8C C9U U10C G15U C16A,1.38
